Data from paper PMC3025062.

Target: cis-3-chloroacrylic acid dehalogenase (native)
Assay: crystal structure

stoichiometry N: 3
Substance: cis-3-chloroacrylic acid dehalogenase (native) (enzyme)
